Laboratory results as given in article PMC12173559, “The Functional DPP4 Receptor Is an Indispensable Factor Mediating the Immune Performance of Mucosal Vaccines for Middle East Respiratory Syndrome” (Transboundary and Emerging Diseases, 2025).

Biological target: T1, MERS-CoV receptor binding domain (RBD), biotinylated (MERS-CoV, UniProt K9N5Q8)
T1 construct: also called MERS-CoV RBD; MERS-CoV spike RBD
T1 sequence: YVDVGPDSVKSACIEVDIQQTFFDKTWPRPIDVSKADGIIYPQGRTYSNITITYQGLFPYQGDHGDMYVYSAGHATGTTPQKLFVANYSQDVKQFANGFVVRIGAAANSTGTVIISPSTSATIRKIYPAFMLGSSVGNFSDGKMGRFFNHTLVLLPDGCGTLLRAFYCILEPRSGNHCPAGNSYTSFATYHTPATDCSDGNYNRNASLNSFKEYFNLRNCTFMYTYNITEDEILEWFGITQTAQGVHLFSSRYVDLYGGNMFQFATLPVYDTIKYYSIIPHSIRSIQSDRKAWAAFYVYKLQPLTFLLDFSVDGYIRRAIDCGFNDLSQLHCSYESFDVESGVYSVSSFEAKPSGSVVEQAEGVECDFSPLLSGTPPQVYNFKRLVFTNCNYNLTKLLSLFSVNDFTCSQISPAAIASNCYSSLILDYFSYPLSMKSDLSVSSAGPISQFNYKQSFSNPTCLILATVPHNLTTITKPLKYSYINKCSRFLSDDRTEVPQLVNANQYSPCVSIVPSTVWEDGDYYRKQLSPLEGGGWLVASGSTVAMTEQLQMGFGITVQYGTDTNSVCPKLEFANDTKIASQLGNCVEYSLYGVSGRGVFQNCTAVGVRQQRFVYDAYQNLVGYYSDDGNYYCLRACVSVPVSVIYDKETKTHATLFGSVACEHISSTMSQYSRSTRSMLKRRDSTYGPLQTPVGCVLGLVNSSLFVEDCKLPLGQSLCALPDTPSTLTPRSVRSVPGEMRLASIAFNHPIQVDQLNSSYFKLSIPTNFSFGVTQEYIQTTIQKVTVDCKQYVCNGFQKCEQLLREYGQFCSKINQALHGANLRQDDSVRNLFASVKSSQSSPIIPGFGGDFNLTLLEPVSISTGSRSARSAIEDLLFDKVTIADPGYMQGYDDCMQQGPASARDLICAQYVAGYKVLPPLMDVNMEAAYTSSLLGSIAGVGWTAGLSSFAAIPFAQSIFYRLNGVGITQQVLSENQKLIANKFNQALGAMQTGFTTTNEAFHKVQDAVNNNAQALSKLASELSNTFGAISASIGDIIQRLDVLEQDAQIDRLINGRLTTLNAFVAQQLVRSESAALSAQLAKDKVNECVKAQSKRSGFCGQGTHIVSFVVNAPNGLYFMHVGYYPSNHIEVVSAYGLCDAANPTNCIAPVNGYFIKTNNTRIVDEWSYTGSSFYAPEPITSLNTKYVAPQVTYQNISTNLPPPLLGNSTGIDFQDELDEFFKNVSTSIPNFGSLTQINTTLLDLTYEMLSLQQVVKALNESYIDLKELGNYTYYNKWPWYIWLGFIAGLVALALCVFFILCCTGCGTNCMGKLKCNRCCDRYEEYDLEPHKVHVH
Experiment: BLI; […] (10 µg/mL) […] (SA) biosensor for 300 s; analyte in kinetic buffer (PBST, 0.1% BSA) […], association 120 s, dissociation 180 s; […]
Settings: both partners purified

B1: human DPP4 (receptor)
chain: SRKTYTLTDYLKNTYRLKLYSLRWISDHEYLYKQENNILVFNAEYGNSSVFLENSTFDEFGHSINDYSISPDGQFILLEYNYVKQWRHSYTASYDIYDLNKRQLITEERIPNNTQWVTWSPVGHKLAYVWNNDIYVKIEPNLPSYRITWTGKEDIIYNGITDWVYEEEVFSAYSALWWSPNGTFLAYAQFNDTEVPLIEYSFYSDESLQYPKTVRVPYPKAGAVNPTVKFFVVNTDSLSSVTNATSIQITAPASMLIGDHYLCDVTWATQERISLQWLRRIQNYSVMDICDYDESSGRWNCLVARQHIEMSTTGWVGRFRPSEPHFTLDGNSFYKIISNEEGYRHICYFQIDKKDCTFITKGTWEVIGIEALTSDYLYYISNEYKGMPGGRNLYKIQLSDYTKVTCLSCELNPERCQYYSVSFSKEAKYYQLRCSGPGLPLYTLHSSVNDKGLRVLEDNSALDKMLQNVQMPSKKLDFIILNETKFWYQMILPPHFDKSKKYPLLLDVYAGPCSQKADTVFRLNWATYLASTENIIVASFDGRGSGYQGDKIMHAINRRLGTFEVEDQIEAARQFSKMGFVDNKRIAIWGWSYGGYVTSMVLGSGSGVFKCGIAVAPVSRWEYYDSVYTERYMGLPTPEDNLDHYRNSTVMSRAENFKQVEYLLIHGTADDNVHFQQSAQISKALVDVGVDFQAMWYTDEDHGIASSTAHQHIYTHMSHFIKQCFSLP
Work on B1 yielded a Kd of 55.1 nM.
